Assay results taken from patent publication US20260250418A1.

Columns and labels:
[1] = molecular target: human MET on NIH3T3-hMET cells (human) (UniProt P08581); test: flow cytometry, transfected NIH3T3 cells
[2] = molecular target: monkey MET on NIH3T3-fasMET cells (monkey) (UniProt A0M8R7); test: flow cytometry, transfected NIH3T3 cells
[3] = molecular target: monkey (Macaca fascicularis) HER3 on CHO-fasHER3 cells (monkey (Macaca fascicularis)); test: flow cytometry, transfected CHO cells
[4] = molecular target: mouse HER3 on CHO-mHER3 cells (mouse) (UniProt Q61526); test: flow cytometry, transfected CHO cells
[5] = molecular target: human HER3 on CHO-hHER3 cells (human) (UniProt P21860); test: flow cytometry, transfected CHO cells
[6] = molecular target: dog HER3 on CHO-dHER3 cells (dog); test: flow cytometry, transfected CHO cells

Sequence of monkey MET on NIH3T3-fasMET cells (monkey) (A0M8R7 25-1381 S170N/I621T limits assumed): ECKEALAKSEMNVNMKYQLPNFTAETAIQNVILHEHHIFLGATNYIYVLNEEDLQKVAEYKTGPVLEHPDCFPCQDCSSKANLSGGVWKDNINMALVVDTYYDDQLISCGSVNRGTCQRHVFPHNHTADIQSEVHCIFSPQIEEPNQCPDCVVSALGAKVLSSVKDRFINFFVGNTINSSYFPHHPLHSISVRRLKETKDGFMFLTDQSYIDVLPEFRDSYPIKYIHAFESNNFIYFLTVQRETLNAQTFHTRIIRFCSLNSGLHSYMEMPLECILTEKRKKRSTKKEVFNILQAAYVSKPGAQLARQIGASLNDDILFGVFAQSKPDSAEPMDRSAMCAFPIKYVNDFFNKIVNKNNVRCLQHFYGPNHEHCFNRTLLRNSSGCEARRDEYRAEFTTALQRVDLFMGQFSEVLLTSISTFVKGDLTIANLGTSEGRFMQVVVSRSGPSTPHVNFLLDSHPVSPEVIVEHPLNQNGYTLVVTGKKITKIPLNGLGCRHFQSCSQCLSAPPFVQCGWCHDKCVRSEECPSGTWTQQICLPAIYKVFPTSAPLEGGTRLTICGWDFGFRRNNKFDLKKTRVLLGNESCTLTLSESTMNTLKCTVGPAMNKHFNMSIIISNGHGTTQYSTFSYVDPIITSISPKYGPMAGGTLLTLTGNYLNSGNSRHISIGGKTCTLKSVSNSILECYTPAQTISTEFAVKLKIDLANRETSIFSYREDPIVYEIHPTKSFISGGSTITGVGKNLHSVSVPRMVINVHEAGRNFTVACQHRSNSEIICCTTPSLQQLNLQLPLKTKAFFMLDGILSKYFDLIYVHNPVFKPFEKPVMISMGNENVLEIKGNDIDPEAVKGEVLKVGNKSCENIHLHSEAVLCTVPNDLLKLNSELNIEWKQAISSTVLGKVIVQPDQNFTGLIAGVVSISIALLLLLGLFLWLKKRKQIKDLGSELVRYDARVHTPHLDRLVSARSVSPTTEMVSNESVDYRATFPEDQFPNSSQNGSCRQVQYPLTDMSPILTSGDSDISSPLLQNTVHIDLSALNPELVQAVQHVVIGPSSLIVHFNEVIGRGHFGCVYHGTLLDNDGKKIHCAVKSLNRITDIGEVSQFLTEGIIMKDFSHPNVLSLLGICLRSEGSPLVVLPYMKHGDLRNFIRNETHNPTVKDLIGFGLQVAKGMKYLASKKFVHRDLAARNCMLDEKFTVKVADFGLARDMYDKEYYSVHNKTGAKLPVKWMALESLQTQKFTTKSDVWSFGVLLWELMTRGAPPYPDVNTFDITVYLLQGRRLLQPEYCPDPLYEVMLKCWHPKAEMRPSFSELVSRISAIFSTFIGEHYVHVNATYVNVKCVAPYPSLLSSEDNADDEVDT
Sequence of human MET on NIH3T3-hMET cells (human) (P08581 25-1390 limits assumed): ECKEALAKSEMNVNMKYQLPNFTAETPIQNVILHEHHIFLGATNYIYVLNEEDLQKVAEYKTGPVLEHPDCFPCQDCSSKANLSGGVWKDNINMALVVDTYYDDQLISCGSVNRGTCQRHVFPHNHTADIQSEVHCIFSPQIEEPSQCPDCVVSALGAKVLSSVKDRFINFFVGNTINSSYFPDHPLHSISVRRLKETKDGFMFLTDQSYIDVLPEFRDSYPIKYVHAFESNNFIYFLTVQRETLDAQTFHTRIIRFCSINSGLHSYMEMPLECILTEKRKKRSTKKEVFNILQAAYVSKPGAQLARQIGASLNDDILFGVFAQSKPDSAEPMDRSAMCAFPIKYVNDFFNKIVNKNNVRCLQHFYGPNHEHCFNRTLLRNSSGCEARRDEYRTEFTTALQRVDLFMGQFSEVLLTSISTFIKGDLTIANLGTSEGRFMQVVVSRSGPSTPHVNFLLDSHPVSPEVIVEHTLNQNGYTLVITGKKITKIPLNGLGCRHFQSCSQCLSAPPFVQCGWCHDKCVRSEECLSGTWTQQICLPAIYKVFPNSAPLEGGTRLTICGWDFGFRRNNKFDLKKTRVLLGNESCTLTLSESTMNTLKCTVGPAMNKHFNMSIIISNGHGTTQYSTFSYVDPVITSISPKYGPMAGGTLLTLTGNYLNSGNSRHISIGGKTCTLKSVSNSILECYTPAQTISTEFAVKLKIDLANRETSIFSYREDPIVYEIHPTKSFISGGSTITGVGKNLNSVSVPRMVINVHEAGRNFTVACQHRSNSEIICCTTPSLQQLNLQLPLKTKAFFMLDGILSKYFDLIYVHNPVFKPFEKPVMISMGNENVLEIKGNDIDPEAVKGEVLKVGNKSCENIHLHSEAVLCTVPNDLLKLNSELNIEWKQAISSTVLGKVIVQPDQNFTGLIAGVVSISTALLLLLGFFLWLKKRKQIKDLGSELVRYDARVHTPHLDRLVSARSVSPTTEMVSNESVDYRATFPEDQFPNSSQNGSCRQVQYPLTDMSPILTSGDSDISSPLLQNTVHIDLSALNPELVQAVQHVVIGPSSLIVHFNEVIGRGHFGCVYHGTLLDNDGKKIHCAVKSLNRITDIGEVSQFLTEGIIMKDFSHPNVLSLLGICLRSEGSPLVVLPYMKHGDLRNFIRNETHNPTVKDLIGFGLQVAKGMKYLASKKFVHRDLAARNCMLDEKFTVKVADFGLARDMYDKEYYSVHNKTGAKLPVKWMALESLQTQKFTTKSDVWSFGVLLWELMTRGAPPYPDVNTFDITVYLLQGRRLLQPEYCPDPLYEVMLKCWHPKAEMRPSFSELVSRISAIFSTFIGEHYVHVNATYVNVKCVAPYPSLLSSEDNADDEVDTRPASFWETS
Sequence of mouse HER3 on CHO-mHER3 cells (mouse) (Q61526 20-641): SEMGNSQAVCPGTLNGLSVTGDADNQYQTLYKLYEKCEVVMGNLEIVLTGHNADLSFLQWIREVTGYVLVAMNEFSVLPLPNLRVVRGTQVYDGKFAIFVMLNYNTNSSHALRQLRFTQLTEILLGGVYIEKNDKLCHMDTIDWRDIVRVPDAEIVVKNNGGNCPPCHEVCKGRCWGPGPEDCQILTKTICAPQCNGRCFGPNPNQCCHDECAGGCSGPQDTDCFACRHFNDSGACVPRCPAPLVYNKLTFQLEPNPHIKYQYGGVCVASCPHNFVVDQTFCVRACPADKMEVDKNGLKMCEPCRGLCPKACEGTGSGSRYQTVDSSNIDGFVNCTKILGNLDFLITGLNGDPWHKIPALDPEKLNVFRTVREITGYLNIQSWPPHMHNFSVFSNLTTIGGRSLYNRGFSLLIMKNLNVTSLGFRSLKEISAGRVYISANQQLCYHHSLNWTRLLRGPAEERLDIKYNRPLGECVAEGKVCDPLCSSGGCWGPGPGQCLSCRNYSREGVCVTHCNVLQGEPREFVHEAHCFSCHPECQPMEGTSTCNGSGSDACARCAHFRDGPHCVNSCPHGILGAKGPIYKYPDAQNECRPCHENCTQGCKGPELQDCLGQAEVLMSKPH

Row | Positive Cells [1] [%] | Positive Cells [2] [%] | Percentage of Positive Cells [3] [%] | Positive Cells [3] [%] | Percentage of Positive Cells [4] [%] | Percentage of Positive Cells [5] [%] | Positive Cells [5] [%] | Percentage of Positive Cells [6] [%] | Substance
1 | 3.9 | 0.5 | 0.2 | 3.2 | 0.2 | 0.4 | 2.1 | 1 | NC
2 | 2.4 | 0.6 | 0.9 | 2.7 | 0.5 | 1.7 | 2.8 | 1.6 | NC + secondary antibody
